Measurements: patent US20250002543A1

Tests used:
[1] = target: immunoglobulin immobilized on IgG Sepharose 6 Fast Flow (manufactured by Cytiva); assay: IgG Sepharose 6 Fast Flow column; linear gradient 0.1 M citrate pH 6.5 to pH 2.2; pH at the peak of the eluted binding protein
[2] = target: Herceptin containing human κ light chain subgroup 1 (Vκ1) (manufactured by Chugai Pharmaceutical Co., Ltd.); assay: ELISA; Herceptin immobilised, binding protein at 2 ug/mL, dissociation with 0.05 M citric acid pH 2.7 for 2 min, absorbance ratio to wells without dissociation

Substance: FpL_C3 (wild-type), immunoglobulin-binding domain C3 of protein L (FpL) of Finegoldia magna
- Elution pH [1]: 2.9 pH
- Elution rate [%] [2]: 76%
